Results reported in patent publication US20150098947A1 (RESEARCH DEVELOPMENT FOUNDATION, published 2015).

T1: human Olfml3-FLAG (human, UniProt Q9NRN5 22-406, limits assumed)
T1 construct: Screening antigen of the hybridoma ELISA; the tag is written last only by convention; not shown: FLAG tag
T1 sequence (looked up): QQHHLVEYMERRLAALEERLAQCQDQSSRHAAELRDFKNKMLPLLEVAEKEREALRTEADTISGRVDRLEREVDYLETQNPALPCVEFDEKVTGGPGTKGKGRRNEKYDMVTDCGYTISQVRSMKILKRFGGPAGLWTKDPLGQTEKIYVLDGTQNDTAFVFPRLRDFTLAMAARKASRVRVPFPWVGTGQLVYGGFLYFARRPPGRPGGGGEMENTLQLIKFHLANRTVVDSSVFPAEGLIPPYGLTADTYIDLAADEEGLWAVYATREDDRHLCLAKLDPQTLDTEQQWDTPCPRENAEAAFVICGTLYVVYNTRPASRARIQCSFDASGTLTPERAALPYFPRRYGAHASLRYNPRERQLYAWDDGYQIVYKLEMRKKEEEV

T2: Olfml-3 peptide B (human Olfml3 390-403 aa, olfactomedin-like domain) (human)
T2 peptide: GYQIVYKLEMRKKE

T3: Olfml-3 peptide A (human Olfml3 86-99 aa, coiled-coil domain) (human)
T3 peptide: RVDRLEREVDYLET


Assays:
human Olfml3-FLAG = target: T1, human Olfml3-FLAG; assay: hybridoma screening ELISA
Method: The inventors produced a panel of monoclonal antibodies against a recombinant Olfml-3 protein. Three antibodies against human Olfml3 were generated using standard techniques by injecting simultaneously two 14-aa long peptides comprising epitopes in the coiled-coil (peptide A, 86-99 aa: […]; SEQ ID NO: 5) and the olfactomedin-like domains (peptide B, 390-403 aa: […]; SEQ ID NO: 6) as immunogens in rats (Aurrand-Lions et al., 1996). Briefly, human Olfml3 peptides A and B coupled to 100 μg KLH carrier protein (keyhole limpet hemocyanin, Pierce) and mixed with adjuvant 56322 (Sigma), were used to immunize female Wister rats. In total, three injections were performed every 9 days. Two days after a final s.c. injection of human Olfml3 peptides, blasts from draining lymph nodes were fused to Sp2/0 cells, and hybridomas were selected in HAT-containing medium (Life Technologies). Growing clones were screened by ELISA for the production of monoclonal antibodies recognizing specifically human Olfml3-FLAG. Positive clones were subcloned, rescreened, and further tested. Antibodies were purified on protein G-Sepharose columns (GE HealthCare) according to the manufacturer instructions. Two Olfml3-binding antibodies, 46A9BO and 9F8BO, are of IgG2b isotype subclass and one, Z14A7, is of IgG2c isotype subclass. The 46A9BO and 9F8BO monoclonal antibodies were used for in vivo tumor graft models.

[1] = target: T2, Olfml-3 peptide B (human Olfml3 390-403 …); assay: peptide binding test (ELISA)
[2] = target: T3, Olfml-3 peptide A (human Olfml3 86-99 …); assay: peptide binding test (ELISA)

Row | binding result (human Olfml3-FLAG) | binding result [1] | binding result [2] | Binder
1 | binds | – | – | Z14A7 monoclonal antibody (antibody, IgG2c, V domains shown, Rat hybridoma antibody, IgG2c) VH: EVQLVETGGSLVQPGKSLKLTCATSGFTFSNAWMHWVRQSPEKQLEWVAQIKAKSNNYATYYAESVKGRFTISRDDSKSSIYLQMNSLKEEDTAIYYCLYGYYFDYWGQGVMVTVSS VL: DVVMTQTPVSLPVSLGGQASISCRSSQSLIHSNGNTYLHWFLQKPGQSPQLLIYRISNRFSGVPDRFSGSGSGTDFTLKISRVESEDLGLYYCLQGTHLPFTFGSGTKLEIKR
2 | binds | binds | no binding | 46A9BO monoclonal antibody (glycosylated) (antibody, IgG2b, V domains shown, also called mAb 2; anti-Olfml-3B) VH: AVHLVESGGGLVQPKESLKISCAASGFTFSNAAMYWVRQAPGKGLEWVARIRTKPNDYATYYVDSVKGRFTISRDDSQSMVYLQMDNLKTEDTAMYYCTAFTEPDYWGQGVMVTVSS VL: LIQPPSASVTLGSTVSLTCVGDELSKTYAHWYQQKPDKTIVSVIYKDSERPSGISDRFSGSSSGTTATLTIHGTLAEDEADYYCLSTYSDDNLPVFGGGTKLTVL
3 | – | binds | no binding | deglycosylated 46A9BO antibody (antibody, V domains shown, Same rat IgG2b antibody as 46A9BO after deglycosylation; also called 46A9BO (deglycosylated)) VH: AVHLVESGGGLVQPKESLKISCAASGFTFSNAAMYWVRQAPGKGLEWVARIRTKPNDYATYYVDSVKGRFTISRDDSQSMVYLQMDNLKTEDTAMYYCTAFTEPDYWGQGVMVTVSS VL: LIQPPSASVTLGSTVSLTCVGDELSKTYAHWYQQKPDKTIVSVIYKDSERPSGISDRFSGSSSGTTATLTIHGTLAEDEADYYCLSTYSDDNLPVFGGGTKLTVL
